According to PMC5180416:

Target: WDR5 (WD (Trp-Asp) repeat domain 5) (UniProt P61964)
Assay: fluorescence polarisation

Point of comparison: ARV (peptide), IC50 110 nM. Against it:
- VRA (peptide) — 2.2-fold higher, 240 nM
- FRA (peptide) — 28-fold higher, 3100 nM
- Ac-ARA-NH2 (peptide) — 4.9-fold higher, 540 nM
- HRA (peptide) — 15-fold higher, 1700 nM
- ARE (peptide) — higher, > 100000 nM
- CRA (peptide) — 17-fold higher, 1830 nM
- ARF (peptide) — 2500-fold higher, 280000 nM
- ART (peptide) — within 1.5-fold, 80 nM
- TRA (peptide) — 26-fold higher, 2900 nM
- ARS (peptide) — 16-fold higher, 1800 nM
- SRA (peptide) — 26-fold higher, 2900 nM
- AKA (peptide) — higher, > 300000 nM
- LRA (peptide) — 98-fold higher, 10800 nM
- GRA (peptide) — 700-fold higher, 77400 nM
- ARG (peptide) — 94-fold higher, 10300 nM
- ARL (peptide) — 310-fold higher, 34000 nM

Point of comparison: GRA (peptide), Ki 16700 nM. Against it:
- VRA (peptide) — 330-fold lower, 50 nM
- Ac-ARA-NH2 (peptide) — 140-fold lower, 120 nM
- CRA (peptide) — 42-fold lower, 400 nM
- ARC (peptide) — 840-fold lower, 20 nM
- AKA (peptide) — higher, > 65000 nM
- LRA (peptide) — 7.3-fold lower, 2300 nM
- ARG (peptide) — 7.6-fold lower, 2200 nM
- ARL (peptide) — 2.3-fold lower, 7300 nM
- ARV (peptide) — 840-fold lower, 20 nM
